{
  "source": "paper PMC6899773",
  "about": "(Chemistry (Weinheim an Der Bergstrasse, Germany), 2019)",
  "molecular_target": "the molecule itself",
  "assay": "AUC",
  "data": [
    {"protein": "DC-SIGN extracellular domain (ECD) (domain or fragment, UniProt Q9NNX6 66-404, looked up) SISQEQSRQDAIYQNLTQLKAAVGELSEKSKLQEIYQELTQLKAAVGELPEKSKLQEIYQELTRLKAAVGELPEKSKLQEIYQELTWLKAAVGELPEKSKMQEIYQELTRLKAAVGELPEKSKQQEIYQELTRLKAAVGELPEKSKQQEIYQELTRLKAAVGELPEKSKQQEIYQELTQLKAAVERLCHPCPWEWTFFQGNCYFMSNSQRNWHDSITACKEVGAQLVVIKSAEEQNFLQLQSSRSNRFTWMGLSDLNQEGTWQWVDGSPLLPSFKQYWNRGEPNNVGEEDCAEFSGNGWNDDKCNLAKFWICKKSAASCSRDEEQFLSPAPATPNPPPA", "values": [
      {"measurement": "stoichiometry N", "value": 4}
    ]}
  ]
}
